{"source": "patent US20230131847A1", "about": "“RECOMBINASE COMPOSITIONS AND METHODS OF USE” (FLAGSHIP PIONEERING INNOVATIONS VI, LLC, priority 2019, published 2023)", "molecules": {"B1": {"name": "BXB1 integrase: Bxb1 recombinase protein (Table 3A Line No. 204), delivered as AAV vector or mRNA (protein, UniProt P25426 1-333, looked up)", "Integrase": "MDAEAWLASEKRLIDNEEWTPPAEREKKAAASAITVEEYTKKWIAERDLAGGTKDLYSTHARKRIYPVLGDTPVAEMTPALVRAWWAGMGKQYPTARRHAYNVLRAVMNTAVEDKLVSENPCRIEQKAPAERDVEALTPEELDVVAGEVFEHYRVAVYILAWTSLRFGELIEIRRKDIMDDGETMKLRVRRGPARVGEKIVVGNTKTVRSKRPVTVPPHVAAMIRAHMADRTKMNKGPEALLVTTTRGQRLSKSAFTRSLKKGYAKIGRPDLRIHDLRAVGATLAAQAGATTKELMVRLGHTTPRMAMKYQMASAARDEEIARRMSELAGITP"}}, "key": {"[1]": {"system": "HEK293T landing pad cells", "test": "mRNA delivery of integrase and AAV delivery of template DNA, ddPCR integration assay", "format": "cell-based, human", "description": "FIGS. 4A and 4B: mRNA delivery of BXB1 integrase and AAV delivery of template DNA to mammalian cells. (A) Schematic representation of experiment. mRNA delivery of BXB1 serine recombinase and AAV delivery of template DNA into BXB1 landing pad cell lines. (B) Droplet digital PCR (ddPCR) assay to assess integration (% CNV/landing pad) of BXB1 serine recombinase and transgene into attP-attP* landing pad cell line 3 days post mRNA transfection/AAV transduction. Black dots (to the right of each pair of gray dots) indicate template only samples and fall at 0% on the y-axis. Gray dots (to the left of each pair of black dots) indicate template+BXB1 integrase and fall at greater than 0% on the y-axis.\nMore specifically, a recombinase, e.g., an integrase with an amino acid sequence from Table 3A, 3B, or 3C, e.g., the Bxb1 recombinase protein (Table 3A Line No. 204), and a template DNA comprising the associated attachment site, e.g., a sequence from a LeftRegion or RightRegion of Table 2A, 2B, or 2C, e.g., the LeftRegion from Table 2A Line No. 204, are introduced into a HEK293T landing pad cell line. In this example, the recombinase is delivered as mRNA encoding the recombinase, and the template DNA is delivered via AAV.\nHEK293T landing pad cells containing either the attP-attP* or attB-attB* landing pad sites (see Example 14) were seeded in a 48-well plate format at 40,000 cells/well. […] The timing of delivery was also assessed by the following conditions: 1) mRNA delivery of BXB1 integrase and AAV delivery of template DNA on the same day, 2) mRNA delivery of BXB1 integrase 24 h prior to AAV delivery of template DNA, 3) AAV delivery of template DNA 24 h prior to mRNA delivery of BXB1 integrase. ddPCR was performed to assess the integration mediated through mRNA delivery of a serine integrase and AAV delivery of a template comprising its attachment, ddPCR was performed to assay for integration (% CNV/landing pad) on day 3 post-transfection of mRNA and post-transduction of AAV. ˜2-4% integration was detected using an attP* donor to attB-attB* landing pad 293T cell line (FIG. 4B). […]"}, "[2]": {"system": "HEK293T landing pad cells", "test": "Dual AAV delivery of serine integrase and template DNA, ddPCR integration assay", "format": "cell-based, human", "description": "FIGS. 3A and 3B: Dual AAV delivery of serine integrase and template DNA to mammalian cells. (A) Schematic representation of experiment. BXB1 serine recombinase and template DNA are co-delivered as separate AAV viral vectors into BXB landing pad cell lines. (B) Droplet digital PCR (ddPCR) assay to assess integration (% CNV/landing pad) of BXB1 serine recombinase and transgene into attP-attP* landing pad cell line 3 days and 7 days post-transduction. Black dots (to the right of each pair of gray dots) indicate template only samples and fall at 0% on the y-axis. Gray dots (to the left of each pair of black dots) indicate template+BXB1 integrase and fall between 1-6% on the y-axis. […]\nTwo transgene configurations are assessed to determine the integration, stability, and expression using different AAV donor formats (FIG. 1B): 1) template comprising attP* or attB* that utilizes formation of double-stranded circularized DNA following AAV transduction in the cell nucleus; or 2) template comprising double attachment sites, attP-attP* or attB-attB*, that can integrate into the mammalian genome independent of double-stranded circularization of the DNA following AAV transduction in the cell nucleus. […]"}}, "data": [{"molecule": "B1", "values": [{"measurement": "highest % CNV/landing pad by ddPCR", "setting": "[1]; AAV delivery of attachment site donor 24 h prior to mRNA delivery of BXB1 integrase, day 3", "value": "~4", "unit": "%"}, {"measurement": "integration (% CNV/landing pad) by ddPCR", "setting": "[1]; integrase mRNA about 1 μg + AAV template MOI about 75,000, attP* donor to attB-attB* landing pad 293T cell line, day 3", "value": "2-4%"}, {"measurement": "integration (% CNV/landing pad) by ddPCR, FIG. 4B", "setting": "[1]; template+BXB1 integrase, attP-attP* landing pad cell line, 3 days post mRNA transfection/AAV transduction", "value": "greater than 0%"}, {"measurement": "integration (% CNV/landing pad) by ddPCR", "setting": "[2]; dual AAV2, attB* donor to attP-attP* landing pad cell line, day 3 and day 7 post-transduction, integrase MOI about 25,000, template MOI about 75,000", "value": "~5", "unit": "%"}, {"measurement": "integration (% CNV/landing pad) by ddPCR, FIG. 3B", "setting": "[2]; dual AAV, template+BXB1 integrase, attP-attP* landing pad cell line, 3 days and 7 days post-transduction", "value": "1-6%"}]}]}
